This is an account of results in PMC6776994.

The target in experiment [1] is CCR5 chemokine receptor (human) (UniProt P51681). The experiment is described as follows: flow cytometry on cells.
For experiment [2] the target is unchanged. The experiment is described as follows: plasmonic metal-enhanced fluorescence imaging of cells.

UniProt P51681, sequence (P51681 whole entry): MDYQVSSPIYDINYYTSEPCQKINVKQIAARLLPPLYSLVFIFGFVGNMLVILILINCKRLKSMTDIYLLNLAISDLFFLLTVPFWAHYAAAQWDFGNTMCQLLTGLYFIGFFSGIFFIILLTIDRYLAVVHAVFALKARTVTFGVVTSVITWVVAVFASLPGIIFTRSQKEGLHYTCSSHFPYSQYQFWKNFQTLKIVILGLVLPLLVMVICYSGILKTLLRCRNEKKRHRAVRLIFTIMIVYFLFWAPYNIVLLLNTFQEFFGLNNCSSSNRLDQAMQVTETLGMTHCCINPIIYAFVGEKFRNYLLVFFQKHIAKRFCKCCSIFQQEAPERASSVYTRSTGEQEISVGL

In the case of “full length single chain (FLSC) IgG1 (Fc fusion)”, the reduction in CCR5 intensity (staining by mAb 45531) after FLSC IgG1 in experiment [1] stood at 10%. In experiment [2], the fold increase of CCR5 binding on MVC-treated against untreated cells turned out to be 1.65 fold.
